According to IntAct's records for PubMed 31481669:

B1: EKC/KEOPS complex subunit LAGE3 (Homo sapiens), Q14657 (parent)
chain: MRDADADAGGGADGGDGRGGHSCRGGVDTAAAPAGGAPPAHAPGPGRDAASAARGSRMRPHIFTLSVPFPTPLEAEIAHGSLAPDAEPHQRVVGKDLTVSGRILVVRWKAEDCRLLRISVINFLDQLSLVVRTMQRFGPPVSR
partner: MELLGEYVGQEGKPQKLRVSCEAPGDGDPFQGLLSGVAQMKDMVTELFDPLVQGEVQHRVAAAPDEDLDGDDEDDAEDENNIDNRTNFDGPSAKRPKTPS

Variants of: B1
Settings: with gon7_human GON7, Q9BXV9

Variant	effect of a mutation on the interaction
F137S	with no effect
V106F	with no effect
